Results on nine proteins are retold here after publication PMC7041794, “Investigating the ferric ion binding site of magnetite biomineralisation protein Mms6” (PLoS ONE, 2020).

Data set [1] concerns the molecule itself. Kind of data set: SEC; gel filtration of purified SUMO-Mms6 on Superdex S200 10/300 in 20 mM Tris pH 7.4; molecular weights extrapolated from Gel Filtration Marker Kit standards.
Data set [2] concerns the molecule itself. In words: SDS-PAGE; purified proteins on Bio-Rad AnyKd gel, InstantBlue staining; apparent monomer and dimer bands.

B1: SUMO-Mms6 (natural protein, Magnetospirillum magneticum AMB-1)
chain: GGTIWTGKGLGLGLGLGLGAWGPIILGVVGAGAVYAYMKSRDIESAQSDEEVELRDALA
notes: Mms6, Magnetospirillum magneticum AMB-1, mature form (59 residues), the C-terminal stretch of the printed SUMO-Mms6 construct; numbers count on: the mature protein (truncated form isolated by Arakaki et al.); No cleavage of the tags is described; also called wildtype SUMO-Mms6; Mms6 (His6-SUMO fusion); source: E. coli BL21 (DE3) Star, purified (nickel column, dialysis against EDTA and …)
A word on the stoichiometry N: it is the number of molecules, sites or subunits per partner or assembly. In the case of B1, in data set [1], the “stoichiometry N” value is 2.

B2: SUMO-Mms6 D49A (natural protein, Magnetospirillum magneticum AMB-1)
chain: GGTIWTGKGLGLGLGLGLGAWGPIILGVVGAGAVYAYMKSRDIESAQSAEEVELRDALA
notes: Mms6, Magnetospirillum magneticum AMB-1, mature form; numbers count on: the mature protein; Same tags and construct as m1; source: E. coli BL21 (DE3) Star, purified (nickel column, dialysis); not shown: His6, N-terminal, kept; SUMO (yeast), N-terminal, kept
With B2, in data set [2], the binding result was “binds”.

B3: SUMO-Mms6 D42A (natural protein, Magnetospirillum magneticum AMB-1)
chain: GGTIWTGKGLGLGLGLGLGAWGPIILGVVGAGAVYAYMKSRAIESAQSDEEVELRDALA
notes: Mms6, Magnetospirillum magneticum AMB-1, mature form; numbers count on: the mature protein; Same tags and construct as m1 (pET28SUMOmms6, site directed mutagenesis); source: E. coli BL21 (DE3) Star, purified (nickel column, dialysis); not shown: His6, N-terminal, kept; SUMO (yeast), N-terminal, kept
B3: the binding result in data set [2] is “binds”.

B4: SUMO-Mms6 EE50AA (natural protein, Magnetospirillum magneticum AMB-1)
chain: GGTIWTGKGLGLGLGLGLGAWGPIILGVVGAGAVYAYMKSRDIESAQSDAAVELRDALA
notes: Mms6, Magnetospirillum magneticum AMB-1, mature form; numbers count on: the mature protein; Same tags and construct as m1; also called double mutant; source: E. coli BL21 (DE3) Star, purified (nickel column, dialysis); not shown: His6, N-terminal, kept; SUMO (yeast), N-terminal, kept
For the protein B4, the binding result in data set [2] was “binds”.

B5: SUMO-Mms6 E50A (natural protein, Magnetospirillum magneticum AMB-1)
chain: GGTIWTGKGLGLGLGLGLGAWGPIILGVVGAGAVYAYMKSRDIESAQSDAEVELRDALA
notes: as for B2
Take B5: the binding result in data set [2] is on record as “binds”.

B6: SUMO-Mms6 E51A (natural protein, Magnetospirillum magneticum AMB-1)
chain: GGTIWTGKGLGLGLGLGLGAWGPIILGVVGAGAVYAYMKSRDIESAQSDEAVELRDALA
notes: as for B2
Consider B6, for which the binding result in data set [2] is “binds”.

B7: SUMO-Mms6 R55A (natural protein, Magnetospirillum magneticum AMB-1)
chain: GGTIWTGKGLGLGLGLGLGAWGPIILGVVGAGAVYAYMKSRDIESAQSDEEVELADALA
notes: as for B2
On to B7, for which the binding result in data set [2] is reported as “binds”.

B8: SUMO-Mms6 E53A (natural protein, Magnetospirillum magneticum AMB-1)
chain: GGTIWTGKGLGLGLGLGLGAWGPIILGVVGAGAVYAYMKSRDIESAQSDEEVALRDALA
notes: as for B2
Regarding B8, the binding result in data set [2] is given as “binds”.

B9: SUMO-Mms6 E44A (natural protein, Magnetospirillum magneticum AMB-1)
chain: GGTIWTGKGLGLGLGLGLGAWGPIILGVVGAGAVYAYMKSRDIASAQSDEEVELRDALA
notes: as for B2
For B9, the binding result in data set [2] is listed as “binds”.
